In US20160208274:

Tested on: fibrin (formed in the agarose plate from fibrinogen and thrombin)

Substance: recombinant Desmodus rotundus salivary plasminogen activator alpha2 (DSPAα2) from transgenic T1 tobacco seeds, with C-terminal 6xHis tag and KDEL
- fibrin degradation: recombinant proteins t-PA, DSPAα1 and DSPAα2 produced in this manner can degrade fibrin
